These results are taken from patent publication US20020081652A1 (YEDA RESEARCH AND DEVELOPMENT, published 2002).

The target in one experiment is mAb 198. The experiment is described as follows: competition ELISA: fragment preincubated with mAb 198, binding of mAb 198 to coated Torpedo AChR read.
In a further experiment the target is T1, α-bungarotoxin (UniProt P60615 22-95).
T1 sequence: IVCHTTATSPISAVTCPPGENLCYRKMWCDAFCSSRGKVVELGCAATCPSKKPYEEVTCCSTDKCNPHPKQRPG
The experiment is described as follows: blot overlay with 125I-α-BTX, 20 µg fragment.

Experimental for mAb 198: Microtiter plates were coated with Torpedo AChR (1 μg/ml) in PBS and incubated overnight at 4° C.

B1: Hα1-205 expressed with no fusion partner (receptor)
chain: SEHETRLVAKLFKDYSSVVRPVEDHRQVVEVTAGLQLIQLINVDEVNQIVTTNVRLKQGDMVDLPRPSCVTLGVPLFSHLQDEQWVDYNLKWNPDDYGGVKKIHIPSEKIWRPDLVLYNNADGDFAIVKFTKVLLQYTGHITWTPPAIFKSYCEIIVTHFPFDEQNCSMKLGTWTYDGSVVAINPESDQPDLSNFMESGEWVIKESRGWKHSVTYSCCPDTPYLDITYHF
notes: The 5' primer adds an initiation codon (and a Gly codon) before residue 1; also called 'less native' fragment
In the case of B1, in the experiment with mAb 198, the IC50 amounted to 3300 nM.

B2: Hα1-210 fused to thioredoxin (Trx-Hα1-210) (receptor)
chain: SEHETRLVAKLFKDYSSVVRPVEDHRQVVEVTAGLQLIQLINVDEVNQIVTTNVRLKQGDMVDLPRPSCVTLGVPLFSHLQDEQWVDYNLKWNPDDYGGVKKIHIPSEKIWRPDLVLYNNADGDFAIVKFTKVLLQYTGHITWTPPAIFKSYCEIIVTHFPFDEQNCSMKLGTWTYDGSVVAINPESDQPDLSNFMESGEWVIKESRGWKHSVTYSCCPDTPYLDITYHFVMQRL
notes: Solubilised from inclusion bodies in 9 M urea and dialysed; also called Trx-H1α-210; 'more native' fragment; not shown: thioredoxin (Trx) encoded by the pThioHis-A vector (Invitrogen); the vector's thioredoxin may
For B2, the binding result with α-bungarotoxin was “binds”. Besides, the IC50 in the experiment with mAb 198 was found to be 300 nM.

One may read the IC50 as the concentration that inhibits the measured activity by half.
